Where a chain is given by its changes, count along the chain named.
B1: mouse monoclonal antibody 20-2-5 (antibody, V domains shown)
VH: EVNLVESGGDLVKPGGSLKLSCAVSGFTFSGYAMSWVRQTPEKRLEWVASIATNGSTYYPDTVKGRFTIFRDNARNILYLQMSSLRSEDTAIYYCTRLRGFDNWGQGTTLTVSS
VL: DVLMTQIPLSLPVSLGDQASISCRSSQNIVHSNGNTYLEWYLQKSGQSPKLLIYKVFKRLSGVPDRFSGSGSGTDFTLRISRVEAEDLGVYYCFQGSHVPYTFGGGTKLEIK
B2: mouse monoclonal antibody 5-10-5 (antibody, V domains shown)
VH: DVQLQESGPGLVKPSQSLSLTCTVTGFSITSDYAWNWIRQFPGNKLEWMGYISYKYGTRYNPSLKGRISITRDTSKNQFFLQLNSLTTEDTAIYYCARRGTDGYGFAYWGQGTLVTVSA
VL: DIVLTQSPASLGVSLGQRATISCRASESVSSSGYSYIHWYQQRPGQPPKLLIFLASNLESGVPARFSGSGSGTDFTLNIHPVEEEDAATYYCQHSRELPLTFGAGTKLELK
B3: mouse monoclonal antibody 1-10-4 (antibody, V domains shown)
VH: EVKLVESGGDLVKPGGSLKLSCAVSGFSLNTYAMSWVRQTPEQRLEWVASISTNGSTYHSDSVKGRFTISRYNARNILYLQMSSLRSEDSAIYYCTRLRGFDYWGQGTTLTVSS
VL: B1 VL with V2I, I7T, P12S, S45P, L51P, V56L, F57S, L60F, D75Y, R79K
B4: mouse monoclonal antibody 16-5-4 (antibody, V domains shown)
VH: EVKLVESGGDLVKPGGSLKLSCAASGFTFNTYAMSWVRQTPEKRLEWVASISSNGSTYHPESVKGRFTISRDIARNILNLQMSSLRSEDTAIYYCSRLRGFDYWGQGTTLTVSS
VL: B1 VL with I7T, N28S, S45P, L51P, L60F, R79K
B5: mouse monoclonal antibody 6-3-8 (antibody, V domains shown)
VH: EVKLVEFGGGLVEPRGSLKLSCAASGFTFSTYAMSWVRQTPEKRLEWVASIASNGSTYYPDSVRGRFTISRDNARNILYLQMSSLRSEDTAMYYCSRLRGFDYWGQGSTLTVSS
VL: B1 VL with N28S, S45P, K50S, D75E, R79K, S81N
B6: mouse monoclonal antibody 18-3-3 (antibody, V domains shown)
VH: EVKLVESGGGLVKPGGSLKLSCAASGFTFRSYAVSWVRQTPEKRLEWVASISTNGSTYYPDSMKGRFTISRDTARNILYLEMNSLRSEDTAMYYCARLRGFDYWGQGTPLTVSS
VL: B1 VL with I7T, N28S, S45P, F57S, L60F, R79K, S81T
B7: mouse monoclonal antibody 14-12-1 (antibody, V domains shown)
VH: EVKLVESGGDLVKPGGSLKLSCAASGFTLSDYAMSWVRQSPEERLEWVASISTNGSTYYPDSVKGRFTISRDNARNILSLQMSSLRSEDTAIYYCTRLRGFDNWGQGTLLTVSS
VL: B1 VL with I7T, I53M, F57S, S70R, R79K

Target: T1, non-cleaved SNAP-25206 (UniProt P60880 1-206)
T1 construct: range 1-206
Assay: ELISA and Western blots

| Binder | binding result |
| --- | --- |
| B1 | no binding |
| B2 | no binding |
| B3 | no binding |
| B4 | no binding |
| B5 | no binding |
| B6 | no binding |
| B7 | no binding |

— patent US20160202245A1 (MERZ PHARMA, published 2016)
